The record followed here is paper PMC4231456, “HIV-1 Tat protein binds to TLR4-MD2 and signals to induce TNF-α and IL-10” (Retrovirology, 2013).

For orientation: IC50 means the midpoint of a concentration-inhibition curve.

Where only a bound is given, the exact number is not on record here.

The target of assay [1] is GST-Tat 1-101 (HIV-1 Tat protein) (HIV-1). As to the kind of experiment: ELISA; competition: GST-Tat 1-101 or GST-Tat 1-45 (0.1 μM) pre-incubated 1 h at 37°C with increasing amounts of soluble rhMD2, rhTLR4-MD2, rhTLR4 or rhCD14, then 2 h on coated rhMD2 (or TLR4-MD2); OD 450 nm; K0.5 taken as an apparent dissociation constant.
GST-Tat 1-101 (HIV-1 Tat protein) (HIV-1), sequence (P04614 whole entry): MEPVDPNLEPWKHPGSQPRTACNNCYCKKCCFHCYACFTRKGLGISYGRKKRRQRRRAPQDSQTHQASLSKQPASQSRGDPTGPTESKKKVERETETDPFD
A further assay addresses T1, recombinant human TLR4 (human, UniProt O00206 24-631).
T1 construct: human Toll-like receptor 4 (TLR4), recombinant, used coated or soluble without MD2; also called rhTLR4; rh TLR4
Nature of the assay: ELISA; rh TLR4 coated at 1 μg/ml; MD2 at 1-10 μg/ml in solution; detected with anti-MD2 monoclonal antibodies. The note with it: both partners purified.

T1 sequence (O00206 24-631): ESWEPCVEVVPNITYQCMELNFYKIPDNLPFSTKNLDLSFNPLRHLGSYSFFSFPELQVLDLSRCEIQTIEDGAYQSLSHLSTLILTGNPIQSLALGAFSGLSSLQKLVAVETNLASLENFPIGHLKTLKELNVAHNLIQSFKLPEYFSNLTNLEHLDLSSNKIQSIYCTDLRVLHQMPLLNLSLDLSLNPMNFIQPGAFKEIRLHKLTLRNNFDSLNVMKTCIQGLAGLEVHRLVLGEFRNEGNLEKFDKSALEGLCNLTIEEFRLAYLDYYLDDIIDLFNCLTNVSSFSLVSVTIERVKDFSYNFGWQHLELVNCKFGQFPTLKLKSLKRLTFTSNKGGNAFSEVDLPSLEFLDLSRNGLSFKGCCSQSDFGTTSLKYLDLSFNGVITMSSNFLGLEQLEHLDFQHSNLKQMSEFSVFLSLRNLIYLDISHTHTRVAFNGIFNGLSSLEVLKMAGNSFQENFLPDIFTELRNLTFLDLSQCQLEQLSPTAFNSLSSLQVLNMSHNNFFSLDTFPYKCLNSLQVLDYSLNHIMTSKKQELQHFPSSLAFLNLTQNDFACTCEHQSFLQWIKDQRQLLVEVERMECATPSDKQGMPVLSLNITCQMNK

Turning to “recombinant human TLR4-MD2 complex (from UniProt O00206 24-631; Q9Y6Y9 19-160)”, the IC50 in assay [1] was 1 nM.

B1: recombinant human MD2 (natural protein, UniProt Q9Y6Y9 19-160, looked up)
chain: QKQYWVCNSSDASISYTYCDKMQYPISINVNPCIELKRSKGLLHIFYIPRRDLKQLYFNLYITVNTMNLPKRKEVICRGSDDDYSFCRALKGETVNTTISFSFKGIKFSKGKYKCVVEAISGSPEEMLFCLEFVILHQPNSN
notes: human MD2 (lymphocyte antigen 96), soluble recombinant; No catalogue number printed; also called rhMD2; hMD2; source: bought: R&D Systems
With B1, the binding result with recombinant human TLR4 is on record as “binds”. Further, in assay [1], the half-maximal inhibitory concentration (IC50) came to 4 nM and the percent inhibition of Tat binding to coated MD2 with soluble MD2 at 1 μg/ml was > 95%.
